Experimental data reported in publication PMC7722734, “Reverse C-glycosidase reaction provides C-nucleotide building blocks of xenobiotic nucleic acids” (Nature Communications, 2020).

B1: YeiN (ΨMP C-glycosidase; β-pseudouridine 5′-phosphate glycosidase) (Escherichia coli K-12) (protein)
chain: MSELKISPELLQISPEVQDALKNKKPVVALESTIISHGMPFPQNAQTAIEVEETIRKQGAVPATIAIIGGVMKVGLSKEEIELLGREGHNVTKVSRRDLPFVVAAGKNGATTVASTMIIAALAGIKVFATGGIGGVHRGAEHTFDISADLQELANTNVTVVCAGAKSILDLGLTTEYLETFGVPLIGYQTKALPAFFCRTSPFDVSIRLDSASEIARAMVVKWQSGLNGGLVVANPIPEQFAMPEHTINAAIDQAVAEAEAQGVIGKESTPFLLARVAELTGGDSLKSNIQLVFNNAILASEIAKEYQRLAG

Key:
Ribokinase (RbsK) = target: T1, Ribokinase (RbsK) (Escherichia coli, UniProt P0A9J6); assay: phosphorylation, TLC; format: biochemical; details: 2 mM ATP with PEP and pyruvate kinase, 1 mM MgCl2, 10 mM HEPES pH 7.0, 37 °C
T1 construct: full length, N-terminal His6 tag (pET15b), expressed in E. coli BL21(DE3) pLys; 32,290 Da
T1 sequence (P0A9J6 1-309): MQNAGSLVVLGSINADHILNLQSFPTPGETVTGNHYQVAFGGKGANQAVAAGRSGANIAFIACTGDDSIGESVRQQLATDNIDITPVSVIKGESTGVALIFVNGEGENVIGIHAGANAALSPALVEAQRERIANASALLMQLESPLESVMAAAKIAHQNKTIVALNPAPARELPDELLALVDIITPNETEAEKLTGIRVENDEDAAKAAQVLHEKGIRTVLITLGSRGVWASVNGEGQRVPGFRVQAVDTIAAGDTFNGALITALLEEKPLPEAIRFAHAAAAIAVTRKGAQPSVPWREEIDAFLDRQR

purified protein [1] = substrate: Nc1cc(=O)[nH]c(=O)[nH]1; assay: purified protein; details: 5 mM D-Rib5P, 2 mM MnCl2, 50 mM HEPES pH 7.0, 37 °C, reverse (synthesis) direction
purified protein [2] = substrate: Cn1c(=O)cc[nH]c1=O; assay: purified protein; details: 5 mM D-Rib5P, 2 mM MnCl2, 50 mM HEPES pH 7.0, 37 °C, reverse (synthesis) direction
purified protein [3] = substrate: O=c1[nH]ccc(=S)[nH]1; assay: purified protein; details: 5 mM D-Rib5P, 2 mM MnCl2, 50 mM HEPES pH 7.0, 37 °C, reverse (synthesis) direction
purified protein [4] = substrate: O=c1cc[nH]c(=S)[nH]1; assay: purified protein; details: 5 mM D-Rib5P, 2 mM MnCl2, 50 mM HEPES pH 7.0, 37 °C, reverse (synthesis) direction

Row | Molecule | phosphorylation, TLC (Ribokinase (RbsK)) | Km (purified protein [1]) | kcat (purified protein [1]) | Km (purified protein [2]) | kcat (purified protein [2]) | Km (purified protein [3]) | kcat (purified protein [3]) | Km (purified protein [4]) | kcat (purified protein [4])
1 | OC[C@H]1OC(O)C[C@@H]1O (stereo partly drawn) [D-dRib] | D-Rib, D-dRib, D-Xyl, D-Ara,2F-D-Rib, D-Glc were accepted |  |  |  |  |  |  |  | 
2 | B1 |  | 3230 ± 520 µM | 0.01 ± 0.01 s⁻¹ | 1250 ± 330 µM | 0.46 ± 0.04 s⁻¹ | 1980 ± 300 µM | 0.01 ± 0.01 s⁻¹ | 7400 ± 2200 µM | 0.43 ± 0.10 s⁻¹
